Reference: the supplement of paper PMC11865577

Columns and labels:
Experiment in all cases: pull-down binding Z-score (relative to library population); higher = stronger binding
Settings in all cases: RNA library: Library-2
[1] = tested on: TO-N3-2 (biotin conjugate)
Procedure, shortened: (§1)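 Heat-folded RNA library (1 μg, Cy5 or Cy3 end label, phosphate/NaCl/KCl buffer) was captured for 60 min at 25 °C on streptavidin beads displaying 100 pmol of biotin-conjugated small molecule, then washed three times. The bound fraction, eluted in hot SDS, was hybridised to a DNA barcode microarray at 55.5 °C for 20 h. Z-scores for binding were taken against the library mean and standard deviation after beads-only subtraction and trimmed averaging of replicate barcoded probes.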

[2] = tested on: TO-3-N3-2 (biotin conjugate)
Procedure, shortened: as §1

TO-N3 (biotin conjugate) = tested on: TO-N3 (biotin conjugate)
Procedure, shortened: as §1

[3] = tested on: TO-3-N3 (biotin conjugate)
Procedure, shortened: as §1

Sequence | pull-down binding Z-score [1] | pull-down binding Z-score [2] | pull-down binding Z-score (TO-N3 (biotin conjugate)) | pull-down binding Z-score [3]
GCUAAAUUGUUACAUAAACCUAUUGUUUGGCAUGUUAACAAUGCAACUAAUAAAGCCACGUAUAAACCAAAUACCUGGUGUAUACGUUGUCUUUGGAGC | -1.05 | -0.0887 | -1.4 | -1.1
GCUAACAAACAUGCUGAUUUUGACACAUGGUUUAGCCAGCGUGGUGGUAGU | 0.519 | 0.101 | 0.157 | -0.205
GCUAGAAAAUCAGC [SHAPE_invivo_SARS-CoV-2_Motif_531] | -0.164 | 0.246 | -0.0963 | -0.186
GCUAGCUCUUGGAGGUUCCGUGGCUAUAAAGAUAACAGAACAUUCUUGGAAUGCUGAUCUUUAUAAGCUCAUGGGACACUUCGCAUGGUGGACAGC | 0.936 | 0.121 | 0.974 | 0.837
GCUAGUCUUAAUGGAGUCACAUUAAUUGGAGAAGC | 0.337 | 0.112 | 0.474 | 0.378
GCUAGUGGGGGACAACCAAUCACUAAUUGUGUUAAGAUGUUGUGUACACACACUGGU | 0.564 | 0.649 | 1.03 | 0.789
GCUAUAUGAUGC [IAV_invivo_PA_3_Motif_14+IAV_invivo_PA_3_Motif_14] | -0.634 | -0.212 | -0.106 | -0.0014
GCUAUCUAACCUUAACUUGCCUGGUUGUGAUGGU [SHAPE_invivo_SARS-CoV-2_Motif_361] | 0.466 | 0.311 | 0.716 | 0.68
GCUAUGCAAAUGGC | -0.948 | -0.527 | -0.847 | -0.537
GCUAUGGGUAUUAUUGCUAUGUCUGCUUUUGCAAUGAUGUUUGUCAAACAUAAGCAUGCAUUUCUCUGUUUGUUUUUGUUACCUUCUCUUGCCACUGUAGC | -0.573 | -0.526 | -0.98 | -0.966
GCUCACCGUGCCCAGUGAGC [IAV_invivo_M1_M2_7_Motif_5+IAV_invivo_M1_M2_7_Motif_5] | -0.587 | -0.154 | 0.0761 | 0.297
GCUCAGGAUGGUAAUGCUGCUAUCAGC | 1.05 | -0.00388 | 0.203 | -0.137
GCUCUACAAGAUGCUUAUUACAGAGC | -0.0957 | 0.467 | 1.52 | 1.83
GCUCUCUGAUGC [IAV_invivo_NP_5_Motif_10+IAV_invivo_NP_5_Motif_10] | -0.464 | -0.589 | -0.672 | -0.607
GCUGAAAUUGUUGACACUGUGAGUGCUUUGGUUUAUGAUAAUAAGCUUAAAGCACAUAAAGACAAAUCAGC | -0.342 | -0.129 | -0.634 | -0.842
GCUGACACUACUGAUGCUGUCCGUGAUCCACAGACACUUGAGAUUCUUGACAUUACACCAUGUUCUUUUGGUGGUGUCAGU [SHAPE_invivo_SARS-CoV-2_Multi_58_ComplexLevel_1] | 0.237 | -0.3 | 0.456 | -0.0653
GCUGAGGCUUCUAAGAAGCCUCGGC | -1.43 | -0.475 | -1.05 | -0.572
GCUGAGUUGCCAUUCAGC [IAV_invivo_NA_6_Motif_18+IAV_invivo_NA_6_Motif_18] | -0.226 | -0.204 | -0.304 | -0.302
GCUGCACAAAAAGC [IAV_invivo_NP_5_Motif_13+IAV_invivo_NP_5_Motif_13] | -0.23 | -0.544 | -1.08 | -0.79
GCUGGCCUUGAAGCCCCUUUUCUCUAUCUUUAUGCUUUAGUCUACUUCUUGCAGAGUAUAAACUUUGUAAGAAUAAUAAUGAGGCUUUGGCUUUGC | -0.575 | -0.413 | -0.969 | -0.79
GCUGGUAAUGUUCAACUCAGGGUUAUUGGACAUUCUAUGC [SHAPE_invivo_SARS-CoV-2_Motif_203] | -0.0925 | -0.104 | -0.313 | -0.362
GCUGGUCUGACUCACAUGAUGAUCUGGC [IAV_invivo_NP_5_Motif_8+IAV_invivo_NP_5_Motif_8] | 0.653 | -0.265 | -0.454 | -0.624

Sequence | pull-down binding Z-score [1] | pull-down binding Z-score [2] | pull-down binding Z-score (TO-N3 (biotin conjugate)) | pull-down binding Z-score [3]
GCUGGUGCACUUGCCAGU [IAV_invivo_M1_M2_7_Motif_8+IAV_invivo_M1_M2_7_Motif_8] | -0.0123 | -0.545 | -0.408 | -0.522
GCUGUAGUGUUACUAAUCCUUAUGACAGC | -0.349 | -0.242 | -0.197 | -0.113
GCUGUGAGUUGGAUACUUACCUG [U1snRNP5ss-13] | 1.38 | 0.194 | 0.947 | 0.0032
GCUGUUGGUACCAAUUUACCUUUACAGC [SHAPE_invitro_SARS-CoV-2_Motif_335] | -0.561 | -0.037 | 0.215 | 0.416
GCUGUUUAAUAGGGGCUGAACAUGUCAACAACUCAUAUGAGUGUGACAUACCCAUUGGUGCAGGUAUAUGCGCUAGUUAUCAGACUCAGACUAAUUCUCCUCGGC | -0.00417 | 0.183 | 0.298 | -0.351
GCUUCAAGAGAGC | -0.212 | -0.171 | -0.0808 | -0.0727
GCUUCCACAAGUGCUUUUGUGGAAACUGUGAAAGGUUUGGAUUAUAAAGCAUUCAAACAAAUUGUUGAAUCCUGUGGUAAUUUUAAAGUUACAAAAGGAAAAGC | -0.348 | -0.339 | -0.508 | -0.475
GCUUCCACUGAGAAGU [DMSMaPseq_invitro_SARS-CoV-2_Motif_384] | -1.03 | -0.576 | -1.1 | -0.836
GCUUCUAGAAAGUGAACUCGUAAUCGGAGCUGUGAUCCUUCGUGGACAUCUUCGUAUUGCUGGACACCAUCUAGGACGC | 1.23 | 0.191 | 0.335 | -0.191
GCUUGAAGUGGAGC [IAV_invivo_NS1_NEP_8_Motif_14+IAV_invivo_NS1_NEP_8_Motif_14] | 0.386 | -0.23 | -0.23 | -0.454
GCUUGCAUACGUAGACCAUUCUUAUGUUGUAAAUGCUGUUACGACCAUGUCAUAUCAACAUCACAUAAAUUAGUCUUGUCUGUUAAUCCGUAUGUUUGCAAUGC [DMSMaPseq_invitro_SARS-CoV-2_Motif_294] | -0.437 | -0.304 | -0.546 | -0.654
GCUUGGAGAAAAGC [SHAPE_invitro_SARS-CoV-2_Motif_326] | -0.491 | -0.278 | -0.705 | -0.536
GCUUGUCACACCGUUUCUAUAGAUUAGCUAAUGAGUGUGCUCAAGU | 0.588 | -0.356 | -0.0415 | -0.601
GCUUUAGUCUACUUCUUGCAGAGUAUAAACUUUGUAAGAAUAAUAAUGAGGC [SHAPE_invitro_SARS-CoV-2_Motif_467] | -0.561 | -0.169 | 0.0166 | 0.0529
GCUUUCUUUGGC [IAV_invivo_NS1_NEP_8_Motif_2+IAV_invivo_NS1_NEP_8_Motif_2] | -1.09 | -0.505 | -0.43 | -0.0308
GCUUUGAUAUGGAACGUUAAAGAUUUCAUGUCAUUGU | -0.395 | -0.217 | -0.204 | -0.179
GCUUUGUCCAAAAUGCCCUUAAUGGGAACGGGGAUCCAAAUAACAUGGACAAAGC [IAV_invivo_M1_M2_7_Motif_6+IAV_invivo_M1_M2_7_Motif_6] | -0.236 | 0.353 | -0.155 | 0.0624
GGAAAUGAUUCC [IAV_invivo_PB2_1_Motif_4+IAV_invivo_PB2_1_Motif_4] | -1.3 | -0.712 | -1.05 | -0.59
GGAACCUAGUAAUAGGUUUCC [DMSMaPseq_invitro_SARS-CoV-2_Motif_479] | -0.779 | -0.0496 | 0.439 | 0.7
GGAAGACCUUAAAUUCCCUCGAGGACAAGGCGUUCC | -0.19 | -0.381 | -0.658 | -0.756
GGAAGAGACAGGUACGUUAAUAGUUAAUAGCGUACUUCUUUUUC | -0.494 | -0.193 | -0.585 | -0.226
GGAAUAAGUACGAUACUUACCUG [U1snRNP5ss-5] | 1.56 | 0.089 | 0.464 | -0.215

Sequence | pull-down binding Z-score [1] | pull-down binding Z-score [2] | pull-down binding Z-score (TO-N3 (biotin conjugate)) | pull-down binding Z-score [3]
GGAAUAAGUAUGAUACUUACCUG [U1snRNP5ss-6] | 1.18 | 0.331 | 1.81 | 1.69
GGAAUGGAUCCC [IAV_invivo_NP_5_Motif_9+IAV_invivo_NP_5_Motif_9] | -0.367 | -0.0967 | -0.323 | -0.119
GGAAUUGCAAUGUCGAUAGAUAUCCUGCUAAUUCC [DMSMaPseq_invitro_SARS-CoV-2_Motif_342] | -0.212 | -0.418 | -0.229 | -0.203
GGAAUUGUGUUAAUUGUGAUACAUUCU [SHAPE_invitro_SARS-CoV-2_Motif_150] | -0.855 | -0.388 | -0.949 | -0.83
GGAAUUUGAACC [IAV_invivo_PB2_1_Motif_28+IAV_invivo_PB2_1_Motif_28] | -0.514 | -0.147 | 0.0885 | 0.293
GGACAAUUCACCUAAUUUAGCAUGGCCUCUUAUUGUAACAGCUUUAAGGGCCAAUUCUGCUGUCAAAUUACAGAAUAAUGAGCUUAGUCC | -0.485 | -0.176 | -0.563 | -0.496
GGACCAGGAACUAAUCAGACAAGGAACUGAUUACAAACAUUGGCC [DMSMaPseq_invitro_SARS-CoV-2_Motif_522] | 0.031 | 0.134 | 1.01 | 1.03
GGACCUGAGCGCACCUGUUGUCU [SHAPE_invivo_SARS-CoV-2_Motif_351] | 1.67 | 0.645 | 1.58 | 0.863
GGACUUGAAAGAGCC | -0.676 | -0.442 | -0.45 | -0.384
GGAGAAAAUUCC [IAV_invivo_PA_3_Motif_17+IAV_invivo_PA_3_Motif_17] | -0.726 | -0.333 | -0.797 | -0.517
GGAGAAGAACCC [IAV_invivo_PB2_1_Motif_3+IAV_invivo_PB2_1_Motif_3] | 0.0437 | -0.0996 | -0.17 | -0.254
GGAGACAGGUGGUUUCUCAAUCGAUUUACCACAACUCU [SHAPE_invivo_SARS-CoV-2_Motif_209] | -0.516 | -0.326 | -0.19 | -0.078
GGAGAGUGUGGACACUUAUGAAUGUCUUGACACUCGUU [SHAPE_invitro_SARS-CoV-2_Motif_211] | 0.364 | 0.121 | 0.586 | 0.331
GGAGAGUGUUCAGACAUUCUUU [SHAPE_invitro_SARS-CoV-2_Motif_44] | -0.602 | -0.361 | -0.508 | -0.535
GGAGAUGAGGCGUUGCCUCCUCC [IAV_invivo_PA_3_Motif_24+IAV_invivo_PA_3_Motif_24] | -0.275 | -0.663 | -1.01 | -0.646
GGAGGAGGAGGAGGAGGA [G4_r(GGA)6] | -1.68 | 7.36 | 2.99 | 4.17
GGAGGAGGAGGAGGAGGAGGAGGAGGAGGAGGAGGAGGAGGAGGAGGA [G4_r(GGA)16] | 3.35 | 8.95 | 5.89 | 7.15
GGAGGGCCUUCUACGGAAGGAGUGCC [IAV_invivo_M1_M2_7_Motif_16+IAV_invivo_M1_M2_7_Motif_16] | 1.57 | -0.0132 | 0.646 | 0.296
GGAGGUUGCUAGUCAGGCUAGACAAAUGGUGCAAGCGAUGAGAACCAUUGGAACUCAUCCUAGCUCCAGUGCUGGUCUGAAAAAUGAUCUUC [IAV_invivo_M1_M2_7_Motif_15+IAV_invivo_M1_M2_7_Motif_15] | 0.839 | -0.816 | -0.195 | -0.55
GGAGUAAGUCUGAUACUUACCUG [U1snRNP5ss-1] | 0.773 | -0.152 | 0.599 | -0.0269
